Results from US20130288979A1 (CENTRE NATIONAL DE LA RECHERCHE SCIENTIFIQUE CNRS, published 2013).
Non-standard residues stand in square brackets, D forms with d. No end group written: not given here. Ahx = NCCCCCC(=O)O

What was measured:
[1] = target: T1, His-tagged intracellular region of Fas receptor (UniProt P25445 191-335, limits assumed); experiment: SPR (Biacore), mean of three experiments ± SD
T1 construct: domain: intracellular region; Bought reagent (Sigma); also called intra-cellular region of the Fas receptor (Sigma); not shown: His tag
T1 sequence (looked up): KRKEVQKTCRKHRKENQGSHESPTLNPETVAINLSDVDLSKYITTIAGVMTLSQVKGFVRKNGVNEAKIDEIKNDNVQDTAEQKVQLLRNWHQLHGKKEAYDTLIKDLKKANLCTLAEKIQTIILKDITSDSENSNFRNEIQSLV
Description: Additionally, the potential interaction of the fragments with the intracellular region of the Fas receptor was cross-validated by measuring the binding affinities (Kd) using the surface plasmon resonance (SPR) technique (Biacore Life Science, Sweden).
All experiments are performed on a Biacore instrument. For each condition, the mean value of three independent experiments and the corresponding standard deviation are plotted.

[2] = target: T1, His-tagged intracellular region of Fas …; experiment: SPOT pepscan of DAXX (15mers, shift 3) on membrane, probed with His-tagged Fas intracellular region, anti-His(mouse)/anti-mouse-HRP, enzyme-linked blot

B1: mDAXXp (peptide)
peptide: KRFRKEKKQLGSGLLG-NH2
modifications: not fully specified; printed as KRFRKEKKQLGSGLLG-NH2
notes: also called mouse homolog of human DAXXp; murine DAXXp
Binder B1 has a Kd [1] of 252 µM.

B2: Tat-DAXXp (peptide)
peptide: GRKKRRQRRRPPQKKSRKEKKQTGSGPLG-NH2
notes: Conjugate of the Tat cell penetrating peptide (N-terminal) and DAXXp
B2 gave a Kd [1] of 13 µM.

B3: Pip2b-DAXXp (peptide)
peptide: R[Ahx]RR[Ahx]RR[Ahx]RIHILFQN[dR]RMKWHKKKSRKEKKQTGSGPLG-NH2
modifications: not fully specified
notes: 39 residues; holds non-natural residues in the Pip2b part
In the case of B3, the Kd [1] is reported as 0.7 µM.

B4: ncDAXXp (peptide)
peptide: AKLYVYINELCTVLK
notes: Negative-control DAXX 15mer; the text uses it as Tat-ncDAXXp in the cell assays; also called circled spot at the start of row 41 of the DAXX pepscan
B4: no binding [2].

Work on KKSRKEKKQTGSGPLG-NH2 (also called DAXX peptide) [DAXXp] yielded a Kd [1] of 333 µM.
